Test results published in the RNAGym collection of RNA variant scans (doi:10.7554/elife.90254).

B1: OR4K15 (parent)
chain: GUUAACGGUCAUAGGCCAUGGAAACUAGGAGCACCAUUUCGCUGCCAGUGAAGAAAUGAACAAAGAAAAUCUGGGCCAGGCAGGCAUCAAAAGAAAUAGUCUUGCGCUCAACCAGAAAGUCUGUAAUCAUUUUAAGGGUA

Variants of: B1
Experiment: self-cleavage, relative activity (ratio to wild type); higher = more cleavage; in vitro, sequencing; the parent is a self-cleaving ribozyme

Row | Variant | self-cleavage
1 | U37A A62G | 1.37
2 | U37C C46U | 1.33
3 | A36U A94G | 1.44
4 | C34U A67U | 1.92
5 | A36G G123A | 1.46
6 | A33U U87C | 1.74
7 | A33U U87A | 2.04
8 | A36G A78G | 0.07
9 | A36C A91G | 1.81
10 | A36U A91G | 1.42
11 | A36U A91C | 1.76
12 | A33U G48A | 1.42
13 | C35U U70A | 0.97
14 | C35U U70C | 0.58
15 | A36G U133C | 2.18
16 | A36U A52G | 1.43
17 | U37C A55G | 1.59
18 | A36C U127C | 1.51
19 | A36U A68G | 1.62
20 | A36G A118G | 1.47
21 | A36G A118U | 0.73
22 | A36G A118C | 1.46
23 | U37C U122A | 1.4
24 | C35U A111G | 0.05

Row | Variant | self-cleavage
25 | C35U A111U | 0.05
26 | U38A A92G | 1.34
27 | U38A A64G | 1.37
28 | A36C G104A | 0.03
29 | A36G A60G | 1.28
30 | C35U A134G | 1.23
31 | A36U G48A | 1.22
32 | C35A A116G | 0.83
33 | A36U U124C | 1.26
34 | A36U A47G | 1.03
35 | A36U A47U | 0.69
36 | C34U U87C | 1.63
37 | U37C C107U | 0.02
38 | U37G A59G | 0.71
39 | C34U A90G | 0.74
40 | C34U A68G | 1.8
41 | A33U U72C | 0.3
42 | U38A A55G | 1
43 | U37C C101A | 0.22
44 | U37C C101U | 0.78
45 | U37A A68G | 0.51
46 | U38A A90U | 2.21
47 | A36U C107G | 0.03
48 | A36U U100C | 2.44

Row | Variant | self-cleavage
49 | U37C A78C | 0.64
50 | U37C A78G | 0.26
51 | U37C A78U | 0.32
52 | C35U A86G | 0.68
53 | A36G A92U | 0.99
54 | A33U U100C | 1.84
55 | C35U A110G | 0.14
56 | A33U U39A | 1.4
57 | U38A A91G | 1.4
58 | U37C U39A | 1.55
59 | A36G A67U | 1.85
60 | A36G A67G | 1.7
61 | U37A A52G | 2.37
62 | U38A A66G | 1.31
63 | C34A U57C | 1.31
64 | A36U A66U | 1.05
65 | U37C U124C | 0.62
66 | U37C U124A | 0.21
67 | U37C A86G | 1.47
68 | C35U U57A | 0.59
69 | A36U U43A | 1.85
70 | U37A A64G | 1.44
71 | U37C A68U | 1.5
72 | A33U U103C | 0.84

Row | Variant | self-cleavage
73 | A36G G83U | 0.41
74 | A36U A135C | 1.65
75 | A36G U132A | 1.41
76 | A36G U132C | 1.72
77 | U37C G80A | 0.21
78 | A36U A116G | 0.96
79 | A36U A116U | 0.5
80 | A36C U130C | 2.1
81 | A36G U43G | 1.28
82 | A36C U87A | 2.59
83 | A36C U87C | 1.04
84 | A33U U139A | 0.95
85 | A33U U131C | 1.83
86 | U37C A47U | 0.63
87 | C35U U108A | 0.02
88 | C34A A60G | 1.39
89 | U37C A92U | 1.61
90 | A36C U43C | 1.24
91 | U37C U72A | 0.51
92 | U37C U72C | 0.26
93 | C34A A89U | 1.63
94 | C34A A89G | 1.66
95 | U37C C76U | 0.06
96 | U37C G74A | 0.31

Row | Variant | self-cleavage
97 | A36U U49C | 2.04
98 | A36U G83A | 1.13
99 | C35U A51G | 1.06
100 | A36G G65U | 1.06
101 | U37G A62G | 1.44
102 | U38A A47G | 1.59
103 | U38A A47U | 1.31
104 | U37A A96U | 1.83
105 | U37A A96G | 2.31
106 | U37A U38G | 2.08
107 | C34U G123A | 1.87
108 | A36G A86U | 2.91
109 | A36G A86G | 1.01
110 | U37C A111G | 0.03
111 | U37C A111U | 0.15
112 | C35A A129G | 1.27
113 | A36G C76U | 0.12
114 | U37C A59U | 1.91
115 | U37C A59C | 1.08
116 | A33U U49G | 2.25
117 | U37C A51U | 1.83
118 | U37C A51G | 1.49
119 | A36C U103C | 1.44
120 | U37G U131C | 1.37

Row | Variant | self-cleavage
121 | A36U U127C | 0.93
122 | U37G U100C | 1.67
123 | A36U U57C | 1.58
124 | U37G A68G | 1.5
125 | A36C A69C | 1.47
126 | U37A A90G | 0.73
127 | A36G U38C | 1.19
128 | A36U G123A | 1.73
129 | U37C A95U | 1.73
130 | U37C U57A | 0.99
131 | U37C U57G | 0.5
132 | A36G A56G | 1.3
133 | A36G G136U | 1.95
134 | A36G A110C | 0.39
135 | A36G A110G | 0.07
136 | U37C G41U | 1.04
137 | U37G U132C | 0.78
138 | A33U G99A | 1.09
139 | U37G A89G | 1.75
140 | A36C U132C | 1.67
141 | A33U U70C | 1
142 | A36U A69G | 1.56
143 | U37C A140G | 1.24
144 | A36C A64G | 2.21

Row | Variant | self-cleavage
145 | C35U A69G | 1.1
146 | C34U A52G | 0.85
147 | A36U A86G | 1.03
148 | C35U U38A | 0.41
149 | C34U A54G | 1.6
150 | U37C A60G | 0.54
151 | A36G U49A | 1.26
152 | A36U U72A | 0.37
153 | A36U U72C | 0.32
154 | U37C A125G | 0.68
155 | U37C A129G | 0.32
156 | C34U C105U | 0.4
157 | A36U G106A | 0.02
158 | A36G A62G | 1.94
159 | A36G A90G | 1.54
160 | A36G A90C | 1.15
161 | C34U A110G | 0.19
162 | C34U A94G | 1.55
163 | A36U A126U | 1.63
164 | A36U A126G | 0.99
165 | C35U A92U | 1.37
166 | C35U A62G | 0.56
167 | C35U C71U | 0.22
